# Assay results reported in the Immune Epitope Database (IEDB).
# What was measured:
# HLA-A*01:01 = experiment: IEDB peptide-MHC binding, purified MHC/direct/fluorescence; filed as Kd, often an IC50 or EC50 that approximates it; ≥ and ≤ were set here for values at or beyond the usual limits of such assays; settings: source organism: Escherichia coli O157:H7
# HLA-A*02:01 [1] = experiment: as above; settings: source organism: Escherichia coli O157:H7
# HLA-A*03:01 = experiment: as above; settings: source organism: Escherichia coli O157:H7
# HLA-A*11:01 = experiment: as above; settings: source organism: Escherichia coli O157:H7
# HLA-A*26:01 = experiment: as above; settings: source organism: Escherichia coli O157:H7
# HLA-A*31:01 = experiment: as above; settings: source organism: Escherichia coli O157:H7
# HLA-A*69:01 [2] = experiment: as above; settings: source organism: Escherichia coli O157:H7
# HLA-B*07:02 = experiment: as above; settings: source organism: Escherichia coli O157:H7
# HLA-B*08:01 = experiment: as above; settings: source organism: Escherichia coli O157:H7
# HLA-B*15:01 = experiment: as above; settings: source organism: Escherichia coli O157:H7
# HLA-B*27:05 = experiment: as above; settings: source organism: Escherichia coli O157:H7
# HLA-B*40:01 = experiment: as above
# HLA-B*44:02 = experiment: as above; settings: source organism: Escherichia coli O157:H7
# HLA-B*58:01 = experiment: as above; settings: source organism: Escherichia coli O157:H7
# HLA-C*06:02 = experiment: as above
# HLA-C*07:02 = experiment: as above; settings: source organism: Escherichia coli O157:H7 str. EDL933
# HLA-A*02:01 [3] = experiment: IEDB peptide-MHC binding, purified MHC/competitive/fluorescence; filed as Kd, often an IC50 or EC50 that approximates it; ≥ and ≤ were set here for values at or beyond the usual limits of such assays; settings: source organism: Human immunodeficiency virus type 1 (BH5 ISOLATE)
# HLA-A*02:11 = experiment: as above; settings: source organism: Human immunodeficiency virus type 1 (BH5 ISOLATE)
# HLA-A*02:19 = experiment: as above; settings: source organism: Human immunodeficiency virus type 1 (BH5 ISOLATE)
# HLA-A*69:01 [4] = experiment: as above; settings: source organism: Human immunodeficiency virus type 1 (BH5 ISOLATE)
# HLA-A*02:02 = experiment: IEDB peptide-MHC binding, purified MHC/competitive/radioactivity; filed as Kd, often an IC50 or EC50 that approximates it; ≥ and ≤ were set here for values at or beyond the usual limits of such assays; settings: source organism: HIV-1 M:B_ARV2/SF2
# HLA-A*02:03 = experiment: as above; settings: source organism: HIV-1 M:B_ARV2/SF2
# HLA-A*02:06 = experiment: as above; settings: source organism: HIV-1 M:B_ARV2/SF2
# HLA-B*15:42 = experiment: IEDB peptide-MHC binding, purified MHC/competitive/fluorescence; filed as Kd, often an IC50 or EC50 that approximates it; ≥ and ≤ were set here for values at or beyond the usual limits of such assays
# HLA-B*45:06 = experiment: as above
# HLA-B*83:01 = experiment: as above
# HLA-C*04:01 = experiment: as above; settings: source organism: human gammaherpesvirus 4
# HLA-B*18:01 = experiment: IEDB peptide-MHC binding, purified MHC/direct/fluorescence; filed as Kd, often an IC50 or EC50 that approximates it; ≥ and ≤ were set here for values at or beyond the usual limits of such assays; settings: source organism: Bordetella avium
# HLA-C*14:02 = experiment: as above; settings: source organism: Burkholderia vietnamiensis G4
# HLA-C*15:02 = experiment: as above; settings: source organism: Burkholderia vietnamiensis G4
# HLA-B*46:01 = experiment: IEDB peptide-MHC binding, purified MHC/competitive/fluorescence; filed as Kd, often an IC50 or EC50 that approximates it; ≥ and ≤ were set here for values at or beyond the usual limits of such assays; settings: source organism: Burkholderia vietnamiensis G4
# [5] = source organism: human gammaherpesvirus 4
# [6] = source organism: Burkholderia vietnamiensis G4
sequence,measurement,setting,value
RRNDVARIF,Kd,HLA-A*01:01,≥ 20000 nM
same,Kd,HLA-A*02:01 [1],≥ 20000 nM
same,Kd,HLA-A*03:01,≥ 20000 nM
same,Kd,HLA-A*11:01,≥ 20000 nM
same,Kd,HLA-A*26:01,≥ 20000 nM
same,Kd,HLA-A*31:01,≥ 20000 nM
same,Kd,HLA-A*69:01 [2],≥ 20000 nM
same,Kd,HLA-B*07:02,≥ 20000 nM
same,Kd,HLA-B*08:01,1900 nM
same,Kd,HLA-B*15:01,≥ 20000 nM
same,Kd,HLA-B*27:05,120 nM
same,Kd,HLA-B*40:01; source organism: Escherichia coli O157:H7,≥ 20000 nM
same,Kd,HLA-B*44:02,≥ 20000 nM
same,Kd,HLA-B*58:01,≥ 20000 nM
same,Kd,HLA-C*06:02; source organism: Escherichia coli O157:H7 str. EDL933,22 nM
same,Kd,HLA-C*07:02,41 nM
RRVRRRVLV,Kd,HLA-C*06:02; [5],316 nM
VLAEAMSQV,Kd,HLA-A*02:01 [3],27.5 nM
same,Kd,HLA-A*02:11,≤ 0.1 nM
same,Kd,HLA-A*02:19,1.25 nM
same,Kd,HLA-A*69:01 [4],82.7 nM
same,Kd,HLA-A*02:02,2.43 nM
same,Kd,HLA-A*02:03,4.37 nM
same,Kd,HLA-A*02:06,13.1 nM
WEMRAGREI,Kd,HLA-B*15:42; [5],≥ 5000 nM
same,Kd,HLA-B*45:06; [5],≥ 5000 nM
same,Kd,HLA-B*83:01; [5],≥ 5000 nM
same,Kd,HLA-C*04:01,≥ 5000 nM
WMRWGGWPF,Kd,HLA-B*18:01,4660 nM
same,Kd,HLA-B*40:01; source organism: Bordetella avium,512 nM
same,Kd,HLA-C*06:02; [6],≥ 20000 nM
same,Kd,HLA-C*14:02,4720 nM
same,Kd,HLA-C*15:02,≥ 20000 nM
same,Kd,HLA-B*15:42; [6],≥ 5000 nM
same,Kd,HLA-B*45:06; [6],≥ 5000 nM
same,Kd,HLA-B*46:01,418 nM
same,Kd,HLA-B*83:01; [6],≥ 5000 nM
